Test: soluble on expression in E. coli; label from the status in PepcDB or PDB records

**Q.** With “KHPNNAIIIGDNLDALKLLKSAYSEKIKMIYIDPPYNTGNDEFIYPDNFRQDYQKILREVGLMEIDENGKEIESESLKFFKNTQGSGTHSGWLSFMLPRLKLARDLLKEDGVIFISIDDNECANLKILCDEIFGEDNFVGDFIRKTKSTTNDAKIGLNYQHEFLLCYAKDKNYTNLLGGEKNLENYKNPDNDPNGAWINDNPSAKSGNMKTGYFGVTNPYTNKVDYPPVGMFWRFSQNTIQKHIDEGRICFKKEHKDNERGFIYKRYLKDLKTTQKTFDSLIFSDNCYMNQAATKELLNLGMGEYFTYPKGVEFMKKIILHSTTPNEGDIILDFFAGSGTTVHAVMELNAEDKGNREFILVQIDEEIKEDESAYDFCKKELKSAKPVISDITIERVKRAAQKISQLSKDSGLDLGFKVYTLQDKVQII” as the sequence, how does the “soluble on expression in E. coli” value read?
**A.** not soluble

**Q.** With “MGHHHHHHSHMFGYVVVNEQNSIVFLDGNEEFKTIFQSLIQSEITSRKSDLDSASSGVGSSTCTEEQESSLDHFKKPNVVFNSSEISHILLPLILLYRSTSEKTKDPITEMSSQFGTISISKFYHNYLVLVFANDDRKRIEVSQTIEHTIATLFGPLIAFCHTDLTTVKKPKEHLACALTRKLSYSPKC” as the sequence, how does the “soluble on expression in E. coli” value read?
**A.** not soluble

**Q.** For “MAHHHHHHMTDEKKEEWIRRPYTRSIPVKLRSLAQLEESTVDATTQWYELLEQLVTETDVKGILQQTTKRKAARKLEELASQLRAVMQEMTAQSGRVVREGVDTQSFEQFCAWAGSTPSLQTTEASNGCTQMDKLCARVCMLCLCVAVILNDLELLICGMSFAESHKLLETYSRECEQRSVRQSNSIPDSGMEKGKNSEDVVLCSTVAHTLICGNDHNTFVPLADGDVLLACTLLYYLYTQDGPSASKSVMILERVLHCAEEVGYTSDVLDETGGYRIDFFYTISRMANWVETDNCPRLYQRIAHGFHGGSEVLVPFPPFVFLFTQVMLHMVVRRRLVEMQLQNVWRPVVTMDAAPVGCDGTAAETCSHVHPTVSSTSLCSAHGSKFFAVCLMLQRDCLSQYRSWPLPMELQKSFFC”, which “soluble on expression in E. coli” value is on record?
**A.** not soluble

**Q.** For “MSLSGDLIDGLRDLNVLVVQPHDGSTEELLKQIGRIGCNATAVWPFPQSIPDGTDMIFMEITHPLDANAVRLLGVESVDAPTVVGIIAYENPSVLKGIIDLKIDTVLAKPIRPFGVLSHMLMARSVCLARRRDEEELQKLRRKIQAIQKIADAKFILMRHHSINETEAYKIIRSQAMAKRTSTLEIAQSVINAESILSGMAPHDLTARMQSQTEGHHHHHH”, which “soluble on expression in E. coli” value is on record?
**A.** not soluble

**Q.** Which “soluble on expression in E. coli” value does the source give for “MRKINTNKNDSQIYSRGFIMRNIRPSQLGQYIRRALRLHFIPVVLVAAPSVMANTNQETEQLETLVVTASALKVETPAQETPKALSIVTQEEIVARAPQKLDEALRYTSGVTAQPYGADNDTDWLKVRGFDAATYQDGSRLFRDGYYTWLIEPYALERIEVLKGPASILYGEAPPGGVVNAVQKKPTDIPQGEVGLQVGNDALRTLTLDISDYANQDGSVRYRLVALMKENDGQLNGTQTSRNYLAPSLSIDISEQTRLTLLASFLEDSGVPTNPFFPAAGTLIDSNFGHIDPSTNLGQPDYDKYERRQVSLGYLFEHDLNDVWALSQTFNYGDNDLYLRSSYAFSNDDPSKDTLTQGIVFRDGSTESLSLDNKAVAKWDSARVENTLLMGLELQRHQTQGVELDNYSFGTINPFNPNYGNFTPIDESSAADRTITKEQASLYAQYQIKLDQQWIGLIGGRMDWVDTENESQKNMQRKSRSDAEFSFNAGLMYLASNGVSPYLSYSQSFDVLSTIDSAKGELYKPLKGEQTEVGVKYQPEFYDGYINLAWFDITQQNALVTNPTTFVATQTGEMTAQGIEVESVGYVTDSLKLTASYTFTDAKTDETGGKGTQQAGLIPKHQASAWLDYDAAQLGLQGWTFGSGVRYIGESKDNPRSSDRTVPSVTLVDLMAGYEITENWQVQLNINNLFDREFVSGCDYWCYYGQSRSAVLSANYRW” here?
**A.** not soluble

**Q.** For “VEPSEENSKDCVVCQNGTVNWVLLPCRHTCLCDGCVKYFQQCPMCRQFVQESFAL”, which “soluble on expression in E. coli” value is on record?
**A.** soluble

**Q.** Which “soluble on expression in E. coli” value does the source give for “MIDFACKEFKVEDVIKCALNLTKADLNVMKSFLNEPDRWIDTDALSKSLKLDVSTVQRSVKKLHEKEILQRSQQNLDGGGYVYIYKIYSKNQIRNIIQKIVQSWADRLGQELKEWENGGE” here?
**A.** not soluble

**Q.** With “MGGSHHHHHHGMASALFRMLNSSFEDDPFFSESILAHRENMRQMIRSFSEPFGRDLLSISDGRGRAHNRRGHNDGEDSLTHTDVSSFQTMDQMVSNMRNYMQKLERNFGQLSVDPNGHSFCSSSVMTYSKIGDEPPKVFQASTQTRRAPGGIKETRKAMRDSDSGLEKMAIGHHIHDRAHVIKKSKNKKTGDEEVNQEFINMNESDAHAFDEEWQSEVLKYKPGRHNLGNTRMRSVGHENPGSRELKRREKPQQSPAIEHGRRSNVLGDKLHIKGSSVKSNKK” as the sequence, how does the “soluble on expression in E. coli” value read?
**A.** not soluble

From the DeepSol protein solubility set
